Data on one molecule can be found in patent US20250136702A1, “HUMAN LIFR ANTIGEN BINDING PROTEIN, PREPARATION METHOD THEREFOR, AND APPLICATION THEREOF” (NONA BIOSCIENCES (SUZHOU) CO., LTD., priority 2020, published 2025).

This experiment has as its target human LIFR expressed on the surface of 293T cells (human) (UniProt P42702). Description: flow cytometry on HEK293T-huLIFR cells, median fluorescence, span of the fitted curve.

Sequence of human LIFR expressed on the surface of 293T cells (human) (P42702 45-1097): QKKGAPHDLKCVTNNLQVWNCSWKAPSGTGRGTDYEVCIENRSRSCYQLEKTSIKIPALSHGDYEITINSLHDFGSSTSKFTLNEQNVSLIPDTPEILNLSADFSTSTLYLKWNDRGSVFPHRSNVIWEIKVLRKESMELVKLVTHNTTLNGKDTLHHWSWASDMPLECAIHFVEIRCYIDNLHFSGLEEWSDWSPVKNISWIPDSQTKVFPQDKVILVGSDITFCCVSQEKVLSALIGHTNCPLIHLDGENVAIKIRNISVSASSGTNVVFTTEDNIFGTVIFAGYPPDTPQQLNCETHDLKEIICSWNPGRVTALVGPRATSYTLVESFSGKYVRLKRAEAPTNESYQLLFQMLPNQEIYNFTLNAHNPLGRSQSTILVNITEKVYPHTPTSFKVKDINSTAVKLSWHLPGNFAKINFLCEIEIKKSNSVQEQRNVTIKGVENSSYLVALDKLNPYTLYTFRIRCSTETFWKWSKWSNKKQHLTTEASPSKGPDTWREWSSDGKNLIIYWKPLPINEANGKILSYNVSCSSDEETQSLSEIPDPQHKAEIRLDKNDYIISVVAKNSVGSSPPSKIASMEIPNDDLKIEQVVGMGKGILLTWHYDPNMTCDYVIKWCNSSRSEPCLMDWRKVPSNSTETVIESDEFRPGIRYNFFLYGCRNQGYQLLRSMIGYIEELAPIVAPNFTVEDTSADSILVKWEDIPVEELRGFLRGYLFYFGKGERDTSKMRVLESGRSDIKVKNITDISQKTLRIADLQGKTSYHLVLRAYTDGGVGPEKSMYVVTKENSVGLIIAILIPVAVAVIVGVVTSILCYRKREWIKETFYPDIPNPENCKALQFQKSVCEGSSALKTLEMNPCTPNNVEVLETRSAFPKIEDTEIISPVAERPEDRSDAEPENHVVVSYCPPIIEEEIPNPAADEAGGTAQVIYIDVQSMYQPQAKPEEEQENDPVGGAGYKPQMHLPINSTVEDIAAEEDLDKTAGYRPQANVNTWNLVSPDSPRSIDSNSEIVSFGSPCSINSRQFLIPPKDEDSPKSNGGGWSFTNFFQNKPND

B1: PR301127 (antibody, human IgG1, kappa, V domains shown)
VH: EVQLLQSGGGLVQPGGSLRLSCAASGFTFSNYAMTWVRQAPGKGLEWVSTISGSGAFTYYADAVKGRFTISRVNSKNSLDLQMNSLRAEDTAVYYCAKGGILTGFDNWGQGTLVTVSS
VL: DIQMTQSPSTLSASVGDRVTITCRASQSISSWLAWYQQKPGKAPKLLIYKASSLESGVPSRFSGSGSGTEFSFTISSLQPDDFATYYCQQYKSFSPGGLTFGGGTKVEIKR
The molecule B1 had a Span of 237.
